Experimental data taken from US20040106569.
Marks after values point to notes of the source that are not given here.

Tests used:
[1] = biological target: myelin basic protein
[2] = biological target: GST-GSK3 fusion protein (Cell Signaling Technology)

Protein | radioactive in vitro kinase assay, 32P incorporation by autoradiography (FIG. 11B) [1] | non-radioactive in vitro kinase assay (FIG. 11A) [2] | Activity (phosphorylation of MPB) [1] | non-radioactive in vitro kinase assay, phosphorylated substrate detected by Western blot [2]
full length PKNbeta KE588 mutant (protein) MEEGAPRQPGPSQWPPEDEKEVIRRAIQKELKIKEGVENLRRVATDRRHLGHVQQLLRSSNRRLEQLHGELRELHARILLPGPGPGPAEPVASGPRPWAEQLRARHLEALRRQLHVELKVKQGAENMTHTCASGTPKERKLLAAAQQMLRDSQLKVALLRMKISSLEASGSPEPGPELLAEELQHRLHVEAAVAEGAKNVVKLLSSRRTQDRKALAEAQAQLQESSQKLDLLRLALEQLLEQLPPAHPLRSRVTRELRAAVPGYPQPSGTPVKPTALTGTLQVRLLGCEQLLTAVPGRSPAAALASSPSEGWLRTKAKHQRGRGELASEVLAVLKVDNRVVGQTGWGQVAEQSWDQTFVIPLERARELEIGVHWRDWRQLCGVAFLRLEDFLDNACHQLSLSLVPQGLLFAQVTFCDPVIERRPRLQRQERIFSKRRGQDFLRRSQMNLGMAAWGRLVMNLLPPCSSPSTISPPKGCPRTPTTLREASDPATPSNFLPKKTPLGEEMTPPPKPPRLYLPQEPTSEETPRTKRPHMEPRTRRGPSPPASPTRKPPRLQDFRCLAVLGRGHFGKVLLVQFKGTGKYYAIEALKKQEVLSRDEIESLYCEKRILEAVGCTGHPFLLSLLVCFQTSSHARFVTEFVPGGDLMMQIHEDVFPEPQARFYVACVVLGLQFLHEKKIIYRDLKLDNLLLDAQGFLKIADFGLCKEGIGFGDRTSTFCGTPEFLAPEVLTQEAYTQAVDWWALGVLLYEMLVGECPFPGDTEEEVFDCIVNMDAPYPGFLSVQGLEFIQKLLQKCPEKRLGAGEQDAEEIKVQPFFRTTNWQALLARTIQPPFVPTLCGPADLRYFEGEFTGLPPALTPPAPHSLLTARQQAAFRDFDFVSERFLEP | background activity of unspecific kinases (FIG. 11B) | no (FIG. 11A) or background activity of unspecific kinases (FIG. 11B) were detected with the full length KE and full length TA mutatant proteinss |  | 
full length PKNbeta with the TA mutation at amino acid 718 (protein) MEEGAPRQPGPSQWPPEDEKEVIRRAIQKELKIKEGVENLRRVATDRRHLGHVQQLLRSSNRRLEQLHGELRELHARILLPGPGPGPAEPVASGPRPWAEQLRARHLEALRRQLHVELKVKQGAENMTHTCASGTPKERKLLAAAQQMLRDSQLKVALLRMKISSLEASGSPEPGPELLAEELQHRLHVEAAVAEGAKNVVKLLSSRRTQDRKALAEAQAQLQESSQKLDLLRLALEQLLEQLPPAHPLRSRVTRELRAAVPGYPQPSGTPVKPTALTGTLQVRLLGCEQLLTAVPGRSPAAALASSPSEGWLRTKAKHQRGRGELASEVLAVLKVDNRVVGQTGWGQVAEQSWDQTFVIPLERARELEIGVHWRDWRQLCGVAFLRLEDFLDNACHQLSLSLVPQGLLFAQVTFCDPVIERRPRLQRQERIFSKRRGQDFLRRSQMNLGMAAWGRLVMNLLPPCSSPSTISPPKGCPRTPTTLREASDPATPSNFLPKKTPLGEEMTPPPKPPRLYLPQEPTSEETPRTKRPHMEPRTRRGPSPPASPTRKPPRLQDFRCLAVLGRGHFGKVLLVQFKGTGKYYAIKALKKQEVLSRDEIESLYCEKRILEAVGCTGHPFLLSLLVCFQTSSHARFVTEFVPGGDLMMQIHEDVFPEPQARFYVACVVLGLQFLHEKKIIYRDLKLDNLLLDAQGFLKIADFGLCKEGIGFGDRTSAFCGTPEFLAPEVLTQEAYTQAVDWWALGVLLYEMLVGECPFPGDTEEEVFDCIVNMDAPYPGFLSVQGLEFIQKLLQKCPEKRLGAGEQDAEEIKVQPFFRTTNWQALLARTIQPPFVPTLCGPADLRYFEGEFTGLPPALTPPAPHSLLTARQQAAFRDFDFVSERFLEP | background activity of unspecific kinases (FIG. 11B) | no (FIG. 11A) or background activity of unspecific kinases (FIG. 11B) were detected with the full length KE and full length TA mutatant proteinss |  | 
full length wildtype PKNbeta molecule (889 amino acids) (protein) MEEGAPRQPGPSQWPPEDEKEVIRRAIQKELKIKEGVENLRRVATDRRHLGHVQQLLRSSNRRLEQLHGELRELHARILLPGPGPGPAEPVASGPRPWAEQLRARHLEALRRQLHVELKVKQGAENMTHTCASGTPKERKLLAAAQQMLRDSQLKVALLRMKISSLEASGSPEPGPELLAEELQHRLHVEAAVAEGAKNVVKLLSSRRTQDRKALAEAQAQLQESSQKLDLLRLALEQLLEQLPPAHPLRSRVTRELRAAVPGYPQPSGTPVKPTALTGTLQVRLLGCEQLLTAVPGRSPAAALASSPSEGWLRTKAKHQRGRGELASEVLAVLKVDNRVVGQTGWGQVAEQSWDQTFVIPLERARELEIGVHWRDWRQLCGVAFLRLEDFLDNACHQLSLSLVPQGLLFAQVTFCDPVIERRPRLQRQERIFSKRRGQDFLRRSQMNLGMAAWGRLVMNLLPPCSSPSTISPPKGCPRTPTTLREASDPATPSNFLPKKTPLGEEMTPPPKPPRLYLPQEPTSEETPRTKRPHMEPRTRRGPSPPASPTRKPPRLQDFRCLAVLGRGHFGKVLLVQFKGTGKYYAIKALKKQEVLSRDEIESLYCEKRILEAVGCTGHPFLLSLLVCFQTSSHARFVTEFVPGGDLMMQIHEDVFPEPQARFYVACVVLGLQFLHEKKIIYRDLKLDNLLLDAQGFLKIADFGLCKEGIGFGDRTSTFCGTPEFLAPEVLTQEAYTQAVDWWALGVLLYEMLVGECPFPGDTEEEVFDCIVNMDAPYPGFLSVQGLEFIQKLLQKCPEKRLGAGEQDAEEIKVQPFFRTTNWQALLARTIQPPFVPTLCGPADLRYFEGEFTGLPPALTPPAPHSLLTARQQAAFRDFDFVSERFLEP | the full length wildtype protein kinase N beta as well as the kinase domain show activity |  | ++* | Only the full length wildtype protein kinase N beta or the kinase domain as defined in example 9 were suitable to phosphorylate the substrate
PKNbeta deltaN comprising amino acids 288-889 (protein) CEQLLTAVPGRSPAAALASSPSEGWLRTKAKHQRGRGELASEVLAVLKVDNRVVGQTGWGQVAEQSWDQTFVIPLERARELEIGVHWRDWRQLCGVAFLRLEDFLDNACHQLSLSLVPQGLLFAQVTFCDPVIERRPRLQRQERIFSKRRGQDFLRRSQMNLGMAAWGRLVMNLLPPCSSPSTISPPKGCPRTPTTLREASDPATPSNFLPKKTPLGEEMTPPPKPPRLYLPQEPTSEETPRTKRPHMEPRTRRGPSPPASPTRKPPRLQDFRCLAVLGRGHFGKVLLVQFKGTGKYYAIKALKKQEVLSRDEIESLYCEKRILEAVGCTGHPFLLSLLVCFQTSSHARFVTEFVPGGDLMMQIHEDVFPEPQARFYVACVVLGLQFLHEKKIIYRDLKLDNLLLDAQGFLKIADFGLCKEGIGFGDRTSTFCGTPEFLAPEVLTQEAYTQAVDWWALGVLLYEMLVGECPFPGDTEEEVFDCIVNMDAPYPGFLSVQGLEFIQKLLQKCPEKRLGAGEQDAEEIKVQPFFRTTNWQALLARTIQPPFVPTLCGPADLRYFEGEFTGLPPALTPPAPHSLLTARQQAAFRDFDFVSERFLEP |  |  | -* | 
